Where “and” joins values, the source holds several entries; their conditions need not be identical. Equal entries are not always repeated.
T1: human Siglec-15 ECD-his protein (Acrobiosystems, Cat #: SG5-H52H3) (human, UniProt Q6ZMC9 20-263)
T1 construct: Bought protein; only its extracellular domain stood in the assay; also called human Siglec-15 protein; recombinant human Siglec-15 protein; not shown: his tag
T1 sequence: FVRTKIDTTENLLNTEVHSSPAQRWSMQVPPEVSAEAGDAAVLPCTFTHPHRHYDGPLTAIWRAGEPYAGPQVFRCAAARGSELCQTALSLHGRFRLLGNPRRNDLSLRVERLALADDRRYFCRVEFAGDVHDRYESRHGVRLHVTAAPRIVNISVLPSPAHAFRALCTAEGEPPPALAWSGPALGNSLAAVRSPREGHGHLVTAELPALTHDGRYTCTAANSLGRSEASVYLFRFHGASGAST

T2: human Siglec-15 on CHO-K1/human Siglec-15 cells (KYinno, Beijing) (human, UniProt Q6ZMC9 20-328)
T2 sequence: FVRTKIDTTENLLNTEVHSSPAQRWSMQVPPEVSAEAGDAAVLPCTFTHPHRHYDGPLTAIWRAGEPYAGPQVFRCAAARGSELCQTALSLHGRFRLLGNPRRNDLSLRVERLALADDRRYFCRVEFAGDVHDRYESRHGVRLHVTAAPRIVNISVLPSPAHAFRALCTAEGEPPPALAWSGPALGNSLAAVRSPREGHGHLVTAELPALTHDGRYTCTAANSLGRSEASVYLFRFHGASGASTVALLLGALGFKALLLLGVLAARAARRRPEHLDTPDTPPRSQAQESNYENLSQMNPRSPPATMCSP

T3: human Siglec-4a-his protein (Acrobiosystems, Cat MAG-H52H8) (human, UniProt P20916 20-516)
T3 construct: Bought protein; not shown: his tag
T3 sequence (looked up): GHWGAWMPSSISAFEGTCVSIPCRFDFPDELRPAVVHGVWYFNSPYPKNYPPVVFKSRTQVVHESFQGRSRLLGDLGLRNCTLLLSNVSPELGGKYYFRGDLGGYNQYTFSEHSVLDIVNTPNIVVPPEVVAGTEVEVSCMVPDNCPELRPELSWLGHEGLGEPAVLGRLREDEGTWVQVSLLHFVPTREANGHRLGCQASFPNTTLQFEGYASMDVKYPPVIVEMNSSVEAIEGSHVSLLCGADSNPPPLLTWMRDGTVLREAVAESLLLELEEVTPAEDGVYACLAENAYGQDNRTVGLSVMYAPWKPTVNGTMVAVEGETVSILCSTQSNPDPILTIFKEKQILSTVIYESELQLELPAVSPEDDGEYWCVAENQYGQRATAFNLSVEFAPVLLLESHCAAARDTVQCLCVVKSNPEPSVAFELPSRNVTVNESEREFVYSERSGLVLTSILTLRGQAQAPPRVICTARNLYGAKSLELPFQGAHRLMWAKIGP

B1: PR301289 (antibody, human IgG1, kappa, V domains shown)
VH: QVQLVQSGAEVKKPGASVKVSCRASGYTFTSYDINWVRQATGQGLEWMGWMNPHSGDTGYAQNFQGRVTMTWNTSISTAYMELSSLRSEDTAVYYCARRRVGVYYYGMDVWGQGTTVTVSS
VL: ENVLTQSPGTLSLSPGERATLSCRASQSVSSSYFGWYQQKPGQAPRLLIYGASSRATGIPDRFSGSGSGTDFTLTISRLEPEDFAVYYCQQYGSSPITFGQGTRLEIKR
notes: Parent of the PTM variants PR301289-1 and -2
B2: PR301286 (antibody, human IgG1, kappa, V domains shown)
VH: QVQLVESGGGVVQPGKSLRLSCAASGFTFSSYGMHWVRQAPGKGLEWVAVIWIDGSNRYYAASVKGRFTISRDNSKNTLYLQMNSLRAEDTAVYYCTRGYGDYAYVMDVWGQGASVTVSS
VL: DIVMTQSPLSLPVTPGEPASISCRSSQSLLPGNGYNYLDWYLQKPGQSPQLLIYLGSNRASGVPDRFSGSGSGTDFTLKISRVEAEDVGIYYCMQALQSPLTFGGGTKVEIKR
notes: Parent of the PTM variants PR301286-1, -3, -5, -6, -7
B3: PR300066 (Tab) (antibody, human IgG1, kappa, V domains shown)
VH: QVQLQQPGAELVKPGASVKMSCKASGYTFTSYWITWVIQRPGQGLEWIGDIYCGSDTMHYNEKFKNKATLTVDTSSSTAYMQLSSLTSEDSAVYYCARWWDYGSSYDYFDYWGQGTTLTVSS
VL: DIKMTQSPSSMYASLGERVTITCKASQDINSYLSWFQQKPGKSPKTLIYRANRLVDGVPSRFSGSGSGQDYSLTISSLEYEDMGIYYCLQYDEFPYTFGGGTKLEIKR
notes: variable region from clone 5G12 of WO 2018/057735A1, on human IgG1/kappa constant regions; also called 5G12
B4: PR301285 (antibody, human IgG1, kappa, V domains shown)
VH: QVQLQESGPGLVKPSETLSLTCTVSGGSMISYYWSWLRQPPGKGLEWIGYIYYSGNTNYNPSLKSRITIAVDTSKNQFSLKLNSVTAADTAVYYCARERELHPYYFDYWGQGTLVTVSS
VL: DIQLTQSPSFLSASVGDRVTITCRASQGIDNYLAWYQQKPGKAPKVLIYAASTLQSGVPSRFSGSGSGTEFTLTISSLQPEDFATYYCQQLNSYPLTFGGGTKVEIKR

These binders were tested against T1, human Siglec-15 ECD-his protein … (assay: ELISA, coated human Siglec-15 ECD-his).
Experimental: […] human Siglec-15 ECD-his protein (Acrobiosystems, Cat #: SG5-H52H3) dissolved in PBS was added to an ELISA plate at 100 μL/well for coating and the plate was incubated overnight at 4° C. The ELISA plate was then blocked with PBST (PBS+0.05% Tween 20) containing 2% BSA at 200 μL/well and incubated at 37° C. for 1 h. The ELISA plate was washed 4 times with PBST. The anti-Siglec-15 antibody diluted in a gradient (5-fold dilution, starting concentration: 6.67 nM) was added to the ELISA plate at 100 μL/well and the plate was incubated at 37° C. for 1 h. The ELISA plate was washed 4 times with PBST. The goat anti-human IgG (H+L)-HRP (1:5000, Jackson, Cat #: 109-035-088) was added at 100 μL/well and the plate was incubated at 37° C. for 1 h. The ELISA plate was washed 4 times with PBST. The TMB substrate (Biopanda, Cat #: TMB-S-003) was added at 100 μL/well, and the plate was incubated at room temperature for 5 min, and then the stop buffer (Solarbio, Cat #: C1058) was added at 100 μL/well to stop the reaction.

EC50 | Binder
0.027 nM and 0.058 nM | B1
0.027 nM and 0.018 nM and 0.022 nM | B2
0.022 nM and 0.021 nM and 0.012 nM | B3
0.031 nM | B4

The binders below were run against T2, human Siglec-15 on CHO-K1/human … (assay: flow cytometry on CHO-K1/human Siglec-15 cells).
Experimental: CHO-K1/human Siglec-15 cells (KYinno, Beijing) were adjusted to a density of 1×10⁶/mL with PBS, and the cell suspension was added to a 96-well V-bottom plate at 100 μL/well. The 96-well V-bottom plate was centrifuged at 1000 rpm for 5 min and washed once with PBS+2% FBS. The cells were resuspended in […] of antibody diluted in a gradient (5-fold dilution, starting concentration: 500 nM) and incubated at 4° C. for 1 h, and PR300066 and hIgG1 were used as positive control and negative control, respectively. After 1 h, the cells were washed twice with PBS+2% FBS. The cells were incubated with 100 μL of Alexa Fluor 488 goat anti-human IgG (Jackson, Cat #: 109-545-098) at 4° C. for 1 h in the dark and then washed twice with PBS+2% FBS. The cells were then resuspended in 200 μL of PBS+2% FBS. The fluorescence intensity of the cells was analyzed using a BD FACSCanto™ II flow cytometer.

EC50 | Maximum (MFI) | Binder
1.04 nM | 29200 MFI | B1
1.98 nM | 24200 MFI | B2
3.66 nM and 2.2 nM and 1.64 nM | – | B3
0.553 nM | 20300 MFI | B4

Each binder was assayed against T3, human Siglec-4a-his protein … (assay: ELISA on coated human Siglec-4a-his, antibody at 100 nM and 10 nM, goat anti-human IgG-HRP, OD450).
Experimental: Human Siglec-15 ECD-his protein (Acrobiosystems, Cat SG5-H52H3), human Siglec-2-his protein (Acrobiosystems, Cat CD2-H52H8), human Siglec-4a-his protein (Acrobiosystems, Cat MAG-H52H8), human Siglec-3-his protein (Acrobiosystems, Cat CD3-H5226), human Siglec-10-his protein (Acrobiosystems, Cat SIO-H52H9), and human PD-L1/B7-H1-his protein (Acrobiosystems, Cat PD1-H5229), each at 1 μg/mL and dissolved in PBS, were each added to an ELISA plate at 100 μL/well for coating and the plate was incubated overnight at 4° C. The ELISA plate was then blocked with PBST (PBS+0.05% Tween 20) containing 2% BSA at 200 μL/well and incubated at 37° C. for 1 h. The ELISA plate was washed 4 times with PBST. The anti-Siglec-15 antibody diluted in a gradient (concentrations: 100 nM and 10 nM) was added to the ELISA plate at 100 μL/well and the plate was incubated at 37° C. for 1 h. The ELISA plate was washed 4 times with PBST. The goat anti-human IgG (H+L)-HRP (1:5000, Jackson, Cat 109-035-088) was added at 100 μL/well and the plate was incubated at 37° C. for 1 h. The ELISA plate was washed 4 times with PBST. The TMB substrate (Biopanda, Cat TMB-S-003) was added at 100 μL/well, and the plate was incubated at room temperature for 5 min, and then the stop buffer (Solarbio, Cat #: C1058) was added at 100 μL/well to stop the reaction.

binding result | Binder
no binding (tested: 100 nM) | B1
no binding (tested: 100 nM) | B2
no binding (tested: 100 nM) | B3
no binding (tested: 100 nM) | B4

— patent US20260070974A1 (NONA BIOSCIENCES SUZHOU, published 2026)
